Experimental findings from publication PMC11922060 are described below.

In the test the target is Sumo-tagged Drosophila Spd-2 C-terminal half (Spd-2 697-1146) P817D, phosphorylated in vitro by human PLK1 (UniProt Q9VV79). Briefly: SEC-MALS. The settings on record: 50 µM protein, phosphorylated in vitro with recombinant human PLK1 kinase; parent: est. 0.50; read off a plot. (In general: In gel filtration, larger molecules generally elute earlier.)
UniProt Q9VV79, sequence (Q9VV79 entry or part of it P817D | P817D): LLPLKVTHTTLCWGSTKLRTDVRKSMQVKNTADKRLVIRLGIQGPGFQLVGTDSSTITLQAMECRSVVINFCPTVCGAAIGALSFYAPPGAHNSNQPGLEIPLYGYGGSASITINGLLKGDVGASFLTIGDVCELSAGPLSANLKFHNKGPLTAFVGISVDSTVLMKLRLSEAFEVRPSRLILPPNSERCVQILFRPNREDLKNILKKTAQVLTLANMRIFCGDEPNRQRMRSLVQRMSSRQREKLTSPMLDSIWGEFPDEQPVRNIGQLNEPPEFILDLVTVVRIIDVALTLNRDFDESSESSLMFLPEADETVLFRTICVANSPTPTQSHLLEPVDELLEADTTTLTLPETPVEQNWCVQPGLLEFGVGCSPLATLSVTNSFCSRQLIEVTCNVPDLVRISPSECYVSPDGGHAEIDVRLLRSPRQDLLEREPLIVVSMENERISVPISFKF

Regarding “Sumo-tagged Drosophila Spd-2 C-terminal half (Spd-2 697-1146), wild type, phosphorylated in vitro by human PLK1 (from UniProt Q9VV79) P817D”, the response stood at 0.14.
